Earlier results in PMC11386291.

Columns and labels:
[1] = target: MKK4 D-motif D-motif (Homo sapiens) (UniProt P45985)
[2] = target: MKK6 D-motif D-motif (Homo sapiens) (UniProt P52564)

JNK1 (from UniProt P45983)
Kd [1]: 3.5 µM

p38α (from UniProt Q16539)
Kd [2]: 7.5 µM
